IntAct's records for PubMed 7536190

B1: Tumor necrosis factor receptor superfamily member 6 (Mus musculus), P25446 (parent)
chain: MLWIWAVLPLVLAGSQLRVHTQGTNSISESLKLRRRVRETDKNCSEGLYQGGPFCCQPCQPGKKKVEDCKMNGGTPTCAPCTEGKEYMDKNHYADKCRRCTLCDEEHGLEVETNCTLTQNTKCKCKPDFYCDSPGCEHCVRCASCEHGTLEPCTATSNTNCRKQSPRNRLWLLTILVLLIPLVFIYRKYRKRKCWKRRQDDPESRTSSRETIPMNASNLSLSKYIPRIAEDMTIQEAKKFARENNIKEGKIDEIMHDSIQDTAEQKVQLLLCWYQSHGKSDAYQDLIKGLKKAECRRTLDKFQDMVQKDLGKSTPDTGNENEGQCLE

Variants of: B1
Conditions: with fadd_human FADD

Row | Variant | effect of a mutation on the interaction
1 | I225D | decreasing interaction

Variants of: B1
Conditions: with tnr6_human FAS

Row | Variant | effect of a mutation on the interaction
2 | I225D | decreasing interaction
